Test results: patent publication US20260274981A1 (VIB VZW, published 2026)

T1: cynomolgus TfR overexpressed on CHO cells (cynomolgus monkey, UniProt Q5RDH6 1-760 (Pongo abelii entry))
T1 construct: construct is TfR followed by an HA tag and IRES-GFP; also called cynomolgus monkey TfR1; NHP TfR
T1 chain: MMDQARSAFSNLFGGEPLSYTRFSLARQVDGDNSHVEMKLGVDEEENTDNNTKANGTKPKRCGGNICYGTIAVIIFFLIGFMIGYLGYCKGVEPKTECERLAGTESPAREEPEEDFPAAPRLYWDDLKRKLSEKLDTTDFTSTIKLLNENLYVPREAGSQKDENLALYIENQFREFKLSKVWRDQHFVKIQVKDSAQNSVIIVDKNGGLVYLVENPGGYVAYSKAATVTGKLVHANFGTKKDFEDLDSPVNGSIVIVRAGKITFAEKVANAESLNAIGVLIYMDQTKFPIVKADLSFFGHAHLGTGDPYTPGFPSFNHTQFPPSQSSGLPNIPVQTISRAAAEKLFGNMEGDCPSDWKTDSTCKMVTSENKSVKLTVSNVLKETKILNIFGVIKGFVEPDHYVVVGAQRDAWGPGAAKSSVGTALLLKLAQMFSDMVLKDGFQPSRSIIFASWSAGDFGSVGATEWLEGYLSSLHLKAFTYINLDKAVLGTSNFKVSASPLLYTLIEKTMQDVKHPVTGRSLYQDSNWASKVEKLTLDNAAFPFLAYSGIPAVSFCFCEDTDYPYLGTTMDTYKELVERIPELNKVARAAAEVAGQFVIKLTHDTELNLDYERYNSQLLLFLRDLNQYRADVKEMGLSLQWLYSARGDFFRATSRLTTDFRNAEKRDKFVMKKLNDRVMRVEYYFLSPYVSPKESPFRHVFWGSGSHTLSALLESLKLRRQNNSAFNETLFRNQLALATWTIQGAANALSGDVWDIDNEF


What was measured:
[1] = molecular target: T2, recombinant human TfR (2474-TR, R&D Systems), biotinylated (human, UniProt P02786 89-760, biotinylated with EZ-Link NHS-PEG4-Biotinylation Kit); assay: SPR (Biacore), biotinylated human TfR captured on an SA chip, VHH injected, 1:1 dissociation fit, pH 5.5
T2 construct: Bought protein; also called immobilized recombinant human TfR; biotinylated human TfR
Method: (§1) E. coli TG1 bacteria were transformed with those plasmids and expressions induced. Crude extracts were prepared and analyzed for binding by flow cytometry on human TfR overexpressing cells. […] Next, off rates of these selected variants were determined on recombinant human TfR by surface plasmon resonance (Biacore, Marlborough, Massachusetts, United States). Biotinylated human TfR was captured on a streptavidin-coated SA sensor chip (Cytiva). Increasing concentrations of nanobodies were sequentially injected in a single cycle at a flow rate of 30 μL/min. The dissociation was monitored for around 20 min. A reference flow was used as a control for non-specific binding and refractive index changes. Several buffer blanks were used for double referencing. Off rates were derived after fitting the experimental data to the 1:1 binding model with the Biacore Evaluation Software.
(§2) Surface Plasmon Resonance (SPR) was used to measure the interaction between VHHs and human or cynomolgus TfR receptor. Human TfR (2474-TR, R&D Systems) and cynomolgus TfR (90253-C07H, Sino Biological) were biotinylated with the EZ-Link NHS-PEG4-Biotinylation Kit (ThermoFischer Scientific) according to the manufacturer instructions. The binding experiments were performed at 25° C. on a Biacore T200 instrument (Cytiva, Uppsala, Sweden) in HBS-EP+ buffer (10 mM HEPES, 150 mM NaCl, 3 mM EDTA and 0.05% v/v Surfactant P20). Biotinylated human TfR and cynomolgus TfR were captured on a SA sensor chip (Cytiva) at a density of around 250 RU. Increasing concentrations of VHHs were sequentially injected in one single cycle at a flow rate of 30 μl/min. The dissociation was monitored for 20 min. […] A reference flow was used as a control for non-specific binding and refractive index changes. Several buffer blanks were used for double referencing. Binding affinities (KD) and kinetic rate constants (kₒₙ, koff) were derived after fitting the experimental data to the 1:1 binding model with the Biacore T200 Evaluation Software 3.1 using the single cycle kinetic procedure.

[2] = molecular target: T2, recombinant human TfR (2474-TR, R&D …); assay: SPR (Biacore), biotinylated human TfR captured on an SA chip, VHH injected, 1:1 dissociation fit, pH 7.4
Method: as §1, §2

[3] = molecular target: T2, recombinant human TfR (2474-TR, R&D …); assay: SPR (Biacore), ratio of the off rates on human TfR at the two pH values; the printed number equals kd at pH 5.5 divided by kd at pH 7.4
Method: as §1, §2

[4] = molecular target: T3, human TfR overexpressed on CHO cells (human, UniProt P02786 1-760); assay: flow cytometry, column 'Binding to human TfR1 EC50 (M)'; paragraph 156 calls it the capacity to compete for binding on human TfR1, competitor not named
T3 construct: construct is TfR followed by an HA tag and IRES-GFP; also called hTfR; human transferrin receptor

[5] = molecular target: T1, cynomolgus TfR overexpressed on CHO …; assay: flow cytometry, column 'Binding to cyno TfR1 EC50 (M)'; paragraph 156 calls it the capacity to compete for binding on cynomolgus monkey TfR1, competitor not named
[6] = molecular target: T3, human TfR overexpressed on CHO cells; assay: flow cytometry, first of two columns 'Binding to human TfR1 EC50 (M)' (second column: ND); paragraph 156 calls it the capacity to compete for binding on human TfR1, competitor not named
[7] = molecular target: T1, cynomolgus TfR overexpressed on CHO …; assay: flow cytometry, first of two columns 'Binding to cyno TfR1 EC50 (M)' (second column: ND); paragraph 156 calls it the capacity to compete for binding on cynomolgus monkey TfR1, competitor not named
[8] = molecular target: T3, human TfR overexpressed on CHO cells; assay: flow cytometry, second of two columns 'Binding to human TfR1 EC50 (M)' (first column: ND); paragraph 156 calls it the capacity to compete for binding on human TfR1, competitor not named
[9] = molecular target: T1, cynomolgus TfR overexpressed on CHO …; assay: flow cytometry, second of two columns 'Binding to cyno TfR1 EC50 (M)' (first column: ND); paragraph 156 calls it the capacity to compete for binding on cynomolgus monkey TfR1, competitor not named

T2 sequence (P02786 89-760 limits assumed): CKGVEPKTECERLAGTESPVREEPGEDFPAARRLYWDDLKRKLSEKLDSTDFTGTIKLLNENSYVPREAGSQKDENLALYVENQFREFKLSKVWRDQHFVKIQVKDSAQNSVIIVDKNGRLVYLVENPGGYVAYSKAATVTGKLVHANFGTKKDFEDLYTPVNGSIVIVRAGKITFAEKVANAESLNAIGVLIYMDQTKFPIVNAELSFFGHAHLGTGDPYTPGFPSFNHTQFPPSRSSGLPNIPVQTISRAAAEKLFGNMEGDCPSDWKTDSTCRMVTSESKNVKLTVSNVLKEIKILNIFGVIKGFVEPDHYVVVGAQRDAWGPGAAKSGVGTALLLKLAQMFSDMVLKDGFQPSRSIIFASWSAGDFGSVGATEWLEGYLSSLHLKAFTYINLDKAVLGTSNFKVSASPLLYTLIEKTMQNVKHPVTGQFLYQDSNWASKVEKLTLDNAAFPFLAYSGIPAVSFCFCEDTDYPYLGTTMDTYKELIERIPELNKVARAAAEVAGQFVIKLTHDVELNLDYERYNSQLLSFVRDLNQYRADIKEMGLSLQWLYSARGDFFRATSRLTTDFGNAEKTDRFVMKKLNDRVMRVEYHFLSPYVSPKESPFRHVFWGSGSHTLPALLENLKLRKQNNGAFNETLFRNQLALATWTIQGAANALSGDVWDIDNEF

Binder | EC50 [4] [nM] | EC50 [5] [nM] | EC50 [6] [nM] | EC50 [7] [nM] | other results
BBB00772 (VHH, Histidine mutant) VHH: EVQLVESGGGLVQAGGSLRLSCAASGSIFSINAMGWYRQAPGKQRELVAVITSGGSTIYADSVKGRFTISRDNAENTVYLQMNSLRPEDTAVYYCNAHVGLKVPTIQELSLGFGHWGQGTLVTVSS |  |  |  |  | koff [1]: 0.0141 s⁻¹; koff [2]: 0.00737 s⁻¹; off-rate ratio kd pH5.5/kd pH7.4 [3]: 1.92
BBB00515_h1 (VHH) VHH: EVQLVESGGGLVQPGGSLRLSCAASGSIFSINAMGWYRQAPGKQRELVAVITSGGSTIYADSVKGRFTISRDNAENTVYLQMNSLRPEDTAVYYCNAHVGLKVPTIQELSLGFGSWGQGTLVTVSS | 120 | 26 |  |  | 
BBB00515_h02 (VHH, The sheet prints E84K (IMGT) against BBB00515_h01; also called BBB00515_h2) VHH: EVQLVESGGGLVQPGGSLRLSCAASGSIFSINAMGWYRQAPGKQRELVAVITSGGSTIYADSVKGRFTISRDNAKNTVYLQMNSLRPEDTAVYYCNAHVGLKVPTIQELSLGFGSWGQGTLVTVSS | 67 | 23 |  |  | 
BBB00515_h04 (VHH, The sheet prints E1D and E84K (IMGT) against BBB00515_h01; also called BBB00515_h4) VHH: DVQLVESGGGLVQPGGSLRLSCAASGSIFSINAMGWYRQAPGKQRELVAVITSGGSTIYADSVKGRFTISRDNAKNTVYLQMNSLRPEDTAVYYCNAHVGLKVPTIQELSLGFGSWGQGTLVTVSS | 60 | 22 |  |  | 
BBB00533_h14 (VHH) VHH: EVQLVESGGGLVQPGGSLRLSCTASGRTFNYAMGWFRQAPGKNREFVATIDWKDGSSYYADSVKGRFTISRDDAKNTVYLQMNSLRPEDTAVYYCAVGEGDYCSTYTCAAEVEYDYWGQGTLVTVSS |  |  | 340 | 180 | 
BBB00533_h10 (VHH, The sheet prints R72K and D82N (IMGT) against BBB00533_h01) VHH: EVQLVESGGGLVQPGGSLRLSCTASGRTFNYAMGWFRQAPGKNREFVATIDWKDGSSYYLDSVKGRFTISRDNAKNTVYLQMNSLRPEDTAVYYCAVGDGDYCSTYTCAAEVEYDYWGQGTLVTVSS |  |  |  |  | EC50 [8]: 110 nM; EC50 [9]: 14 nM
BBB00533_h13 (VHH) VHH: EVQLVESGGGLVQPGGSLRLSCTASGRTFNYAMGWFRQAPGKNREFVATIDWKDGSSYYADSVKGRFTISRDDAKNTVYLQMNSLRPEDTAVYYCAVGQGDYCSTYTCAAEVEYDYWGQGTLVTVSS |  |  | 560 | 240 | 
BBB00533_h17 (VHH) VHH: EVQLVESGGGLVQPGGSLRLSCTASGRTFNYAMGWFRQAPGKNREFVATIDWKQGSSYYADSVKGRFTISRDDAKNTVYLQMNSLRPEDTAVYYCAVGEGDYCSTYTCAAEVEYDYWGQGTLVTVSS |  |  | 290 | 120 | 
